This note sets out measurements from publication PMC11417369, “DNA sequence and chromatin differentiate sequence-specific transcription factor binding in the human malaria parasite Plasmodium falciparum”.

The chains are these.
T1: SIP2 D1 (Plasmodium falciparum, UniProt C6KSN9 177-235)
T1 sequence: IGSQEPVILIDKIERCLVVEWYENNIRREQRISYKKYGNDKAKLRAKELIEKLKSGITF

B1: GTGCAC_negctrl_site187 (dsDNA)
DNA 1: AGGAAACAAGAAATGAAGAATCATGTAGAAGGCCCA
DNA 2: TGGGCCTTCTACATGATTCTTCATTTCTTGTTTCCT
B2: GTGCAC_negctrl_site453 (dsDNA)
DNA 1: AATAGGAAGACTATTTTGTATTTGATTTTTTATTCC
DNA 2: GGAATAAAAAATCAAATACAAAATAGTCTTCCTATT
B3: GTGCAC_negctrl_site389 (dsDNA)
DNA 1: TATTATAAATTAATTTTAAACTTTATTATTATGATA
DNA 2: TATCATAATAATAAAGTTTAAAATTAATTTATAATA
B4: GTGCAC_negctrl_site525 (dsDNA)
DNA 1: TTTCTAAGAAAAAAAAAAAAAAAAAAAAAGATACAA
DNA 2: TTGTATCTTTTTTTTTTTTTTTTTTTTTCTTAGAAA
B5: GTGCAC_negctrl_site79 (dsDNA)
DNA 1: TTTTAAAAAAGAAAAAAAAAGGATCAGAGAAATATT
DNA 2: AATATTTCTCTGATCCTTTTTTTTTCTTTTTTAAAA
B6: GTGCAC_site10256 (dsDNA)
DNA 1: AAGGAATGCATATAGGTGCTACACATAAAAATAAAA
DNA 2: TTTTATTTTTATGTGTAGCACCTATATGCATTCCTT
B7: GTGCAC_site9982 (dsDNA)
DNA 1: ATTGTTATTTATTGTGTGCGCATTAATACATACATA
DNA 2: TATGTATGTATTAATGCGCACACAATAAATAACAAT
B8: GTGCAC_site10234 (dsDNA)
DNA 1: TAAAACAAAAAAAAGATGCACTATTTATTTTATTAT
DNA 2: ATAATAAAATAAATAGTGCATCTTTTTTTTGTTTTA
B9: GTGCAC_negctrl_site629 (dsDNA)
DNA 1: TTGTTTTCTTTTTCTTTTCTTTTTCTTTTTTCTTTT
DNA 2: AAAAGAAAAAAGAAAAAGAAAAGAAAAAGAAAACAA
B10: GTGCAC_site10455 (dsDNA)
DNA 1: AATATTCAATATAAAGTGCATTATTGTGGACCTAAT
DNA 2: ATTAGGTCCACAATAATGCACTTTATATTGAATATT
B11: GTGCAC_negctrl_site60 (dsDNA)
DNA 1: AACACAATAAAAATTAAAAATGTTAAGTAAATATAA
DNA 2: TTATATTTACTTAACATTTTTAATTTTTATTGTGTT
B12: GTGCAC_site9453 (dsDNA)
DNA 1: TGTTTTATTTTATTAGTGCATTTTTATTTATAATAG
DNA 2: CTATTATAAATAAAAATGCACTAATAAAATAAAACA
B13: GTGCAC_negctrl_site205 (dsDNA)
DNA 1: TATAATTATTTTTTTCTAAATATTATAAGGTATTCA
DNA 2: TGAATACCTTATAATATTTAGAAAAAAATAATTATA
B14: GTGCAC_site10192 (dsDNA)
DNA 1: ATATTATTATATATAGTGCATATTATTATTTTTATT
DNA 2: AATAAAAATAATAATATGCACTATATATAATAATAT
B15: GTGCAC_negctrl_site536 (dsDNA)
DNA 1: TGAAAAAATATAAAATATAAAATAAAAAATATAAAA
DNA 2: TTTTATATTTTTTATTTTATATTTTATATTTTTTCA
B16: GTGCAC_site9663 (dsDNA)
DNA 1: AAATAGTAAGAGATGGTGCGTTTCCTTTTTTTTTTT
DNA 2: AAAAAAAAAAAGGAAACGCACCATCTCTTACTATTT
B17: GTGCAC_site9718 (dsDNA)
DNA 1: TCTTTTTGCATGTGTGTGCGCACAAAATACACAAAA
DNA 2: TTTTGTGTATTTTGTGCGCACACACATGCAAAAAGA
B18: GTGCAC_site9653 (dsDNA)
DNA 1: GTGTACTTTTAAATAGTGCATTTTACAATAATAAAA
DNA 2: TTTTATTATTGTAAAATGCACTATTTAAAAGTACAC
B19: GTGCAC_negctrl_site363 (dsDNA)
DNA 1: ATTAGAGAATCGTAACCCAAATGAACATACTTAAAT
DNA 2: ATTTAAGTATGTTCATTTGGGTTACGATTCTCTAAT
B20: GTGCAC_site10531 (dsDNA)
DNA 1: AGTAATTATTTTAGAGTGCATAGTTTTTTAATAAAT
DNA 2: ATTTATTAAAAAACTATGCACTCTAAAATAATTACT
B21: GTGCAC_negctrl_site169 (dsDNA)
DNA 1: ATAAGAAGGAACATAAATATATCATAAAAAAAAAAA
DNA 2: TTTTTTTTTTTATGATATATTTATGTTCCTTCTTAT
B22: GTGCAC_site10446 (dsDNA)
DNA 1: ATGTATCCAATAGGAGTGCATAATTCTATTAACACC
DNA 2: GGTGTTAATAGAATTATGCACTCCTATTGGATACAT
B23: GTGCAC_negctrl_site419 (dsDNA)
DNA 1: GAAGGAAAAGATACGATAAAATAAGATATTAATTTA
DNA 2: TAAATTAATATCTTATTTTATCGTATCTTTTCCTTC
B24: GTGCAC_site9975 (dsDNA)
DNA 1: TGATTCACTATAGTAGTGCATATTATATATATATAT
DNA 2: ATATATATATATAATATGCACTACTATAGTGAATCA
B25: GTGCAC_negctrl_site176 (dsDNA)
DNA 1: TTTAATTAATAATAATATAAATTGTTCTTTTTTTTT
DNA 2: AAAAAAAAAGAACAATTTATATTATTATTAATTAAA
B26: GTGCAC_negctrl_site530 (dsDNA)
DNA 1: AATATATCAAAAATGATGACATAAATATATTAATTT
DNA 2: AAATTAATATATTTATGTCATCATTTTTGATATATT
B27: GTGCAC_negctrl_site559 (dsDNA)
DNA 1: TTTTTTATTGTGAAACTGATATTATATTTTTTATAA
DNA 2: TTATAAAAAATATAATATCAGTTTCACAATAAAAAA
B28: GTGCAC_negctrl_site504 (dsDNA)
DNA 1: TTTCAAGGATTTAATTTATGGAAACCTTCTTCATTT
DNA 2: AAATGAAGAAGGTTTCCATAAATTAAATCCTTGAAA
B29: GTGCAC_negctrl_site373 (dsDNA)
DNA 1: AATAAATTAAATAAAAATGTTTAACATAAAATATGA
DNA 2: TCATATTTTATGTTAAACATTTTTATTTAATTTATT
B30: GTGCAC_site10335 (dsDNA)
DNA 1: ATCAAGCGCAATGTGGTGCGTAAATTTTGTATTATA
DNA 2: TATAATACAAAATTTACGCACCACATTGCGCTTGAT
B31: GTGCAC_negctrl_site547 (dsDNA)
DNA 1: TTTTACAATAATAAGTAGATCTAAATAAAGATTTAA
DNA 2: TTAAATCTTTATTTAGATCTACTTATTATTGTAAAA
B32: GTGCAC_negctrl_site471 (dsDNA)
DNA 1: GATTATCTATCGCTTGAATGAAATGAAATCATGCAA
DNA 2: TTGCATGATTTCATTTCATTCAAGCGATAGATAATC
B33: GTGCAC_negctrl_site149 (dsDNA)
DNA 1: GCAAAATATTTAAAATAATATATGTGTATATTTTTA
DNA 2: TAAAAATATACACATATATTATTTTAAATATTTTGC
B34: GTGCAC_site9588 (dsDNA)
DNA 1: AAAAAAAAAAATTCGGTGCAATGTAATTAATGTAAA
DNA 2: TTTACATTAATTACATTGCACCGAATTTTTTTTTTT
B35: GTGCAC_negctrl_site69 (dsDNA)
DNA 1: AACAGATAATATAAAAAAAAAAAAAAAAATAATTAA
DNA 2: TTAATTATTTTTTTTTTTTTTTTTATATTATCTGTT
B36: GTGCAC_negctrl_site233 (dsDNA)
DNA 1: TAAACCTTAAAATATTTCTCATGTTTAACTTATATT
DNA 2: AATATAAGTTAAACATGAGAAATATTTTAAGGTTTA
B37: GTGCAC_negctrl_site410 (dsDNA)
DNA 1: TTATCTTAATTGTGATTATAAAGATATTCTTTCTAT
DNA 2: ATAGAAAGAATATCTTTATAATCACAATTAAGATAA
B38: GTGCAC_negctrl_site53 (dsDNA)
DNA 1: TGAAAAATTACAAAAATAATAAAATGAAATAATAAA
DNA 2: TTTATTATTTCATTTTATTATTTTTGTAATTTTTCA
B39: GTGCAC_negctrl_site383 (dsDNA)
DNA 1: TTTTGTTTTGTTTTGTTTTGTTTTGTTTTATTTTAT
DNA 2: ATAAAATAAAACAAAACAAAACAAAACAAAACAAAA
B40: GTGCAC_negctrl_site401 (dsDNA)
DNA 1: AAAAAAATTAAAAATAAAGAAAAAAAAAAAAAAAAA
DNA 2: TTTTTTTTTTTTTTTTTCTTTATTTTTAATTTTTTT
B41: GTGCAC_negctrl_site386 (dsDNA)
DNA 1: AAGATAAACTTTTTTAATTAATTTAATTTTTTTTTT
DNA 2: AAAAAAAAAATTAAATTAATTAAAAAAGTTTATCTT

In this data set the target is T1, SIP2 D1. The data set can be described thus: gcPBM; about 25 ug protein; PBS, 1% milk, 0.2 mg/ml BSA, salmon testes DNA, 0.03% Triton X-100. The conditions noted are these: tags: N-terminal GST (pGEX-4T-1), kept; label: surface-attached array probe.
Regarding B1, the binding signal was 6.71 ln median PBM intensity, better of two orientations.
The value for B2 was 6.62 ln median PBM intensity, better of two orientations; that for B3 was 6.7 ln median PBM intensity, better of two orientations; that for B4 was 6.64 ln median PBM intensity, better of two orientations.
As for B5, the binding signal is 6.69 ln median PBM intensity, better of two orientations.
Under B6 stands 9.67 ln median PBM intensity, better of two orientations.
As for B7, the binding signal was 9.22 ln median PBM intensity, better of two orientations.
In the case of B8, the binding signal is 9.6 ln median PBM intensity, better of two orientations.
Under B9 stands 6.64 ln median PBM intensity, better of two orientations; under B10, 9.41 ln median PBM intensity, better of two orientations; under B11, 6.71 ln median PBM intensity, better of two orientations.
B12: the binding signal is 9.34 ln median PBM intensity, better of two orientations.
The value for B13 was 6.55 ln median PBM intensity, better of two orientations; that for B14 was 9.16 ln median PBM intensity, better of two orientations; that for B15 was 6.67 ln median PBM intensity, better of two orientations.
Under B16 stands 9.3 ln median PBM intensity, better of two orientations.
Under B17 stands 9.06 ln median PBM intensity, better of two orientations; under B18, 9.56 ln median PBM intensity, better of two orientations.
In the case of B19, the binding signal was 6.72 ln median PBM intensity, better of two orientations.
On to B20, for which the binding signal is 8.98 ln median PBM intensity, better of two orientations.
The value for B21 was 6.73 ln median PBM intensity, better of two orientations.
Under B22 stands 9.02 ln median PBM intensity, better of two orientations; under B23, 6.61 ln median PBM intensity, better of two orientations.
In the case of B24, the binding signal was 9.26 ln median PBM intensity, better of two orientations.
The value for B25 was 6.5 ln median PBM intensity, better of two orientations.
The value for B26 was 6.58 ln median PBM intensity, better of two orientations; that for B27 was 6.71 ln median PBM intensity, better of two orientations; that for B28 was 6.53 ln median PBM intensity, better of two orientations.
The value for B29 was 6.67 ln median PBM intensity, better of two orientations; that for B30 was 9.46 ln median PBM intensity, better of two orientations.
Take B31: the binding signal is 6.73 ln median PBM intensity, better of two orientations.
The value for B32 was 6.65 ln median PBM intensity, better of two orientations.
Under B33 stands 6.73 ln median PBM intensity, better of two orientations; under B34, 9.5 ln median PBM intensity, better of two orientations; under B35, 6.71 ln median PBM intensity, better of two orientations.
In the case of B36, the binding signal is 6.73 ln median PBM intensity, better of two orientations.
As for B37, the binding signal was 6.56 ln median PBM intensity, better of two orientations.
The value for B38 was 6.68 ln median PBM intensity, better of two orientations; that for B39 was 6.74 ln median PBM intensity, better of two orientations; that for B40 was 6.66 ln median PBM intensity, better of two orientations.
The value for B41 was 6.66 ln median PBM intensity, better of two orientations.
